Experimental findings from a protein production outcome set (Wang et al. 2014) are described below.

The data set is described as follows: label from the status in PepcDB records.
Consider “MSLFGTTSGFGTSGTSMFGSATTDNHNPMKDIEVTSSPDDSIGCLSFSPPTLPGNFLIAGSWANDVRCWEVQDSGQTIPKAQQMHTGPVLDVCWSDDGSKVFTASCDKTAKMWDLSSNQAIQIAQHDAPVKTIHWIKAPNYSCVMTGSWDKTLKFWDTRSSNPMMVLQLPERCYCADVIYPMAVVATAERGLIVYQLENQPSEFRRIESPLKHQHRCVAIFKDKQNKPTGFALGSIEGRVAIHYINPPNPAKDNFTFKCHRSNGTNTSAPQDIYAVNGIAFHPVHGTLATVGSDGRFSFWDKDARTKLKTSEQLDQPISACCFNHNGNIFAYASSYDWSKGHEFYNPQKKNYIFLRNAAEELKPRNKK”, for which the protein production entry is listed as “failed”.
Next, “MVKSFPKGKHRQRIRLWLGSLVLAALLVGGGLFSWYHWRSPSLKPLYTLTVEAPPQTLPELEQWAQSADLLKRDRARYLLAVESLSQRQPQVALQWLQNLEQTYRPMAAPILLLRAEAYRQQGDSRRAQETWEQLLRDYGSEPEAAIALLSLNQPQRAIARFPQHPAVVHYVAQQLEKNPDQVPYLKLVARYGLFLQGYGTYLEILRQRYADQLTPADWEAIAFGYWEKMQYAPAAEAYAKARPTPLNLYRVGRGRQLSGERTGAIAAYQALIQRFPNSSEAALAQLRLARLAKTAAERLPLLAKCLQLATENQAPAIAADALLEQYQAYRELGNTKGAQQSQQQLFKTYPQSSAAAELRWQLAQGAAQKRQWSQAQQWVREILKFNPESELAARAAFWQGKWQGEAGQPQAQRQTWQLVTERYPHTYYAWRAASLLQKPVGTFTTLRQQRPSVAGDRQPLLPLATGSPTLQELYLLRQFQEAWQRWQWEFQNRVTPTAAEQLTDGLIRLGVGEYLDGIFMLQNLFTRAAREPQVATFFAPIRRDLRFWYALYPLPYWELVKKWSLAHNLNPLLVMALIRQESRFEKDIRSVVGATGLMQLMPETAAWIAQQLNLEDYSLVDPEHNIRLGTWYFDYTHNQYNQNTLLALASYNAGPGNVSQWLERFDIGDSDRFVESIPFPETYGYVKSVLENYWNYWQLYAQP”: “failed”; “MADRQLLHTAHIPVRWGDMDSYGHVNNTLYFQYLEEARVAWFETLGIDLEGAAEGPVVLQSLHTYLKPVVHPATVVVELYAGRLGTSSLVLEHRLHTLEDPQGTYGEGHCKLVWVRHAENRSTPVPDSIRAAIA”: “not failed”.
The entry for “MLSRLSLLSNSRAFQQARWRIYRLKVSPTVHASQYHILSGRKLAQSIREKANDEIQAIKLKHPNFKPTLKIIQVGARPDSSTYVRMKLKASKDSNVDCIIEKLPAEITEVELLKKISDINDDDSIHGLLIQLPLPRHLDETTITNAVDFKKDVDGFHRYNAGELAKKGGKPYFIPCTPYGCMKLLEEAHVKLDGKNAVVLGRSSIVGNPIASLLKNANATVTVCHSHTRNIAEVVSQADIVIAACGIPQYVKSDWIKEGAVVIDVGINYVPDISKKSGQKLVGDVDFDSVKEKTSYITPVPGGVGPMTVAMLVSNVLLAAKRQFVESEKLPVIKPLPLHLESPVPSDIDISRAQSPKHIKQVAEELGIHSHELELYGHYKAKISPNIFKRLESRENGKYVLVAGITPTPLGEGKSTTTMGLVQALSAHLGKPSIANVRQPSLGPTLGVKGGAAGGGYAQVIPMDEFNLHLTGDIHAISAANNLLAAAIDTRMFHEATQKNDSTFYKRLVPRKKGIRKFTPSMQRRLKRLDIEKEDPDALTPEEVKRFARLNINPDTITIRRVVDINDRMLRQITIGEAATEKGFTRTTGFDITVASELMAILALSKSLHEMKERIGRMVIGADYDNKPVTVEDIGCTGALTALLRDAIKPNLMQTLEGTPVMVHAGPFANISIGASSVIADLMALKLVGSEKNPLNDKNIHEPGYVVTEAGFDFAMGGERFFDIKCRSSGLVPDAVVLVATVRALKSHGGAPNVKPGQSLPKEYTEENIDFVAKGVSNLVKQIENIKTFGIPVVVAINRFETDSQAEIEVIKKAALNAGASHAVTSNHWMEGGKGAVELAHAVVDATKEPKNFNFLYDVNSSIEDKLTSIVQKMYGGAKIEVSPEAQKKIDTYKKQGFGNLPICIAKTQYSLSHDPSLKGVPRGFTFPIRDVRASIGAGYLYALAAEIQTIPGLSTYAGYMAVEVDDDGEIEGLF” is “failed”.
The entry for “MANIFIENSLLFALTQIVPLLYIVTTALYGIHFFKETPLAGSLKQPALILTVVTHVADLGLLTSTAGYRLSYSAYNLMSMVALTLAITYMFIEFTTKSDKTGFFVIAFAAGSALFSSILSSQTVDSGLAFSGLGIGVHLFAAIFGFSSVAIAGLYSGMYLVLFRQIRLNRFGLLFQRLPNLETLEMLIMHAVAFGFFFLSVTIVAGVLEQHASKEVINLFEPRLVSLFVIWALYGISLVIKPLFGWDIKHMAVLLIALFVLVTALLFIMSLVTPSFHGMSI” is “failed”.
